Experimental findings from patent US20170022281A1 (AbbVie / Abbott, published 2017) are described below.

Assay [1] addresses T1, mouse PRLR ECD-Fc fusion protein (mouse, UniProt Q08501 20-229).
T1 construct: extracellular domain; not shown: Fc region (captured by goat anti-human Fc)
T1 sequence (looked up): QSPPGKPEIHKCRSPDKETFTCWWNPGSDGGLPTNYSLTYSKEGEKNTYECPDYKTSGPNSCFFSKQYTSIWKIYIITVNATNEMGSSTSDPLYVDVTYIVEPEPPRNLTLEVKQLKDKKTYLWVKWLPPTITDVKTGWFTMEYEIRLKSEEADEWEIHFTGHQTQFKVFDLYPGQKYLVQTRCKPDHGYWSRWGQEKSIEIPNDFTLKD
Description: ELISA on ECD. In a few lines:
(§1)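 PRLR was captured on blocked plates for 1 h, then incubated 1 h with serial antibody dilutions in PBS pH 7.4/0.05% Tween 20 containing 10% Superblock. HRP secondary and TMB gave signal read at 450 nm, and EC50 came from curve fitting.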

Assay [2] concerns the target T2, rat PRLR ECD-Fc fusion protein (rat, UniProt P05710 20-229).
T2 construct: extracellular domain; not shown: Fc region (captured by goat anti-human Fc)
T2 sequence (looked up): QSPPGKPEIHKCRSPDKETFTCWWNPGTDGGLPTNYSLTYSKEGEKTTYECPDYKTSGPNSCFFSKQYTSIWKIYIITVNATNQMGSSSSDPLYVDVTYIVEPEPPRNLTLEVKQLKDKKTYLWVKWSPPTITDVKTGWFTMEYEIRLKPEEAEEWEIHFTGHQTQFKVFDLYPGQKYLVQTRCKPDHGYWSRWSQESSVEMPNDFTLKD
As to the kind of experiment: ELISA on ECD. In a few lines:
as §1

Another assay deals with T3, human PRLR on cells (human, UniProt P16471 25-622).
T3 construct: Endogenous on T47D cells, transfected in Baf3-hPRLR cells; also called hPRLR; T47D cells
T3 sequence: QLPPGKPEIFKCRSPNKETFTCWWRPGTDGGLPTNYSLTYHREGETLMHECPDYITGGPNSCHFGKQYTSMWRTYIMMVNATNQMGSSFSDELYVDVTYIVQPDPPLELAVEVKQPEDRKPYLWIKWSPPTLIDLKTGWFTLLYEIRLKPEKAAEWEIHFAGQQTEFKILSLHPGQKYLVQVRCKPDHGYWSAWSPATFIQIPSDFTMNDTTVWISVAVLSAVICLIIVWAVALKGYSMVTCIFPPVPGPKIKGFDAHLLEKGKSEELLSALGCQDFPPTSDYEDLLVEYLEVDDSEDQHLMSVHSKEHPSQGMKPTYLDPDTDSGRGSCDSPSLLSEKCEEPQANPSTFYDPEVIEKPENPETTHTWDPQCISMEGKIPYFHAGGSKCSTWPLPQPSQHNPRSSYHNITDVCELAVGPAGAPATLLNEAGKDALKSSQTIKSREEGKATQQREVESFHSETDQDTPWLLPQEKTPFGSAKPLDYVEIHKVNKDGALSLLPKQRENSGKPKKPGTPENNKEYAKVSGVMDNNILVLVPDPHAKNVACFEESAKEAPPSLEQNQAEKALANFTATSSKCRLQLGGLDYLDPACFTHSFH
Description: FACS T47D 10 ug/mL.

The target in assay [3] is T4, rat PRLR on Nb2-11 rat lymphoma cells (rat, UniProt P05710 20-610).
T4 sequence (looked up): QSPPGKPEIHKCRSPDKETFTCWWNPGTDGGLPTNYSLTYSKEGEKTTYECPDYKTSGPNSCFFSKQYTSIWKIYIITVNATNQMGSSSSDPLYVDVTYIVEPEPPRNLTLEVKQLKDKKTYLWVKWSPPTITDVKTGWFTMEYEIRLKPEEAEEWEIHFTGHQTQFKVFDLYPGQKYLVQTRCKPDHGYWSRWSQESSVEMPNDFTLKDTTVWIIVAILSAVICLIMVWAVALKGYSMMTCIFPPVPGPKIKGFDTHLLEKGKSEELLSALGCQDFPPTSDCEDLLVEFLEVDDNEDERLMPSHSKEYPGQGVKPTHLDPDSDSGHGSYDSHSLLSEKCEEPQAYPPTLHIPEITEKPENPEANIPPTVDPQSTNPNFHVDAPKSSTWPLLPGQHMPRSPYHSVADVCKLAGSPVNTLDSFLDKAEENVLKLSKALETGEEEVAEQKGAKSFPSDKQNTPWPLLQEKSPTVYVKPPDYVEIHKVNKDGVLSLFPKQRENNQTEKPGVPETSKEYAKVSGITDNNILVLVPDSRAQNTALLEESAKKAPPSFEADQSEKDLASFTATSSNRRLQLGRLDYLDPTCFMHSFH
As to the kind of experiment: cell-based or functional assay.

Assay [4] concerns the target T4, rat PRLR on Nb2-11 rat lymphoma cells. Description: FACS Nb2-11 20 ug/mL. As for the experimental part:
Nb2-11 and Baf3-xPRLR cells were resuspended in FACS buffer (PBS+1% FBS) at 2 millions cells/mL. Cells were added to round bottom 96-well plate (100 uL/well) and treated with testing PRLR antibodies for 1 hr at 4 C. Cells were then washed with FACS buffer twice and incubated with 2nd antibody conjugated to ALEXA488 (Invitrogen) for 1 hr at 4 C. After two washes in FACS buffer, cells were resuspended in 1% formaldehyde in PBS. Cells were analyzed using LSRII flowcytometer.

B1: Ab5 (antibody, V domains shown)
VH: QVQLQQPGAELVRPGTSVKLSCKASGYTFTSFWMHWVKQRPGQGLEWIGVIDPSDTYTNYNQKFKGKATLTVDTSSSTAYMQLSSLTSEDSAVYYCARGDYSNWFTYWGQGTLVTVSA
VL: DVVMTQTPLSLPVSLGDQASISCRSSQRLVHSNGNTYLHWYLQKPGQSPKLLIYKVSNRFSGVPDRFSGSGSGTDFTLKISRVEAEDLGVYFCSQSTHVPWTFGGGTKLEIK
notes: murine monoclonal, isotype G2a; also called murine Ab5
B1: the figures for the EC50 in assay [1] and in assay [2] were 0.098 nM and 0.08 nM, respectively. Also, the “FACS GeoMean-neg” value with human PRLR on cells worked out at 1610; in assay [4] it was 90. In addition, the “Nb2-11 proliferation IC50” value in assay [3] was found to be 0.91 mg/L.

B2: Ab7 (antibody, V domains shown)
VH: QVQLQQPGAELVMPGTSVKLSCKASGYTFTSYWIHWVKQRPGQGLEWIGEIDPSDSYTNYNQKFKGKATLTVDRSSSTAYMQLSSLTSEDSAVYYCGRSFFTNWFAYWGQGTLVTVSA
VL: DVVMTQTPLSLPVSLGDQASISCRSSQSLVHSNGNTYLHWYLQKPGQSPKLLIYKVSNRFSGVPDRFSGSGSGTDFTLKINRVEAEDLGVYFCSQSTHVPFTFGSGTKLEIK
notes: murine monoclonal, isotype G1; also called murine Ab7
For the molecule B2, the values for the EC50 in assay [1] and in assay [2] were 0.143 nM and 0.135 nM, respectively. The “FACS GeoMean-neg” value is 2380 with human PRLR on cells and 82 in assay [4]. Moreover, the “Nb2-11 proliferation IC50” value in assay [3] was 4.42 mg/L.

B3: chAb5 (antibody, human IgG1, kappa, V domains shown)
VH: QVQLQQPGAELVRPGTSVKLSCKASGYTFTSFWMHWVKQRPGQGLEWIGVIDPSDTYTNYNQKFKGKATLTVDTSSSTAYMQLSSLTSEDSAVYYCARGDYSNWFTYWGQGTLVTVSA
VL: DVVMTQTPLSLPVSLGDQASISCRSSQRLVHSNGNTYLHWYLQKPGQSPKLLIYKVSNRFSGVPDRFSGSGSGTDFTLKISRVEAEDLGVYFCSQSTHVPWTFGGGTKLEIKT
notes: chimeric, murine variable and human G1/kappa constant regions
As to B3, the EC50 in assay [1] amounted to 0.12 nM; in assay [2], 0.147 nM. Besides, the “Nb2-11 proliferation IC50” value in assay [3] worked out at 0.69 mg/L.

B4: Ab13 (antibody, V domains shown)
VH: QVQLQQPGAELVRPGTSVKLSCKASGYTFTSFWMHWVKQRPGQGLEWIGVIDPSDSHTNYNQKFKGKATLTVNTSSSTAYMHLSSLTSEDSAVYYCARGDYSNWFTYWGQGTLVTVSA
VL: DVVMTQTPFSLPVSLGDQASISCRSSQSLVHSNGNTYLHWYLQKPGQSPKLLIYKVSNRFSGVPDRFSGSGSGTDFTLKISRVEAEDLELYFCSQSTHVPWTFGGGTKLEIK
notes: murine monoclonal, isotype G2a; also called murine Ab13
In the case of B4, the EC50 is 0.088 nM in assay [1] and 0.085 nM in assay [2]. Also, the figures for the “FACS GeoMean-neg” value (in the assay with human PRLR on cells; in assay [4]) were 1500 and 60, respectively. The “Nb2-11 proliferation IC50” value in assay [3] turned out to be 7.56 mg/L.

B5: Ab30 (antibody, human IgG1, kappa, V domains shown)
VH: EVQLVQSGAEVKKPGSSVKVSCKASGYTFTSFWMHWVRQAPGQGLEWIGVIDPSDTYTNYNQKFKGRATLTVDESSSTAYMELSSLRSEDTAVYYCARGDYSNWFTYWGQGTLVTVSS
VL: DVVMTQTPLSLSVTPGQPASISCRSSQRLVHSNGNTYLHWYLQKPGQSPQLLIYKVSNRFSGVPDRFSGSGSGTDFTLKISRVEAEDVGVYFCSQSTHVPWTFGGGTKVEIKR
notes: humanized from Ab5; G1; also called Ab2 HC.1a and Ab2 LC.1a
B5: the EC50 stood at 0.198 nM in assay [1] and 0.423 nM in assay [2].

B6: Ab12 (antibody, V domains shown)
VH: DVQLQESGPGLVKPSQSLSLTCTVTGYSITSDYAWNWIRQFPGNKLEWMGYIGYSGRTSFNPSLKSRISITRDTSKNQFFLQLNSVTTEDTATYYCARGGFAMDYWGQGTSVTVSS
VL: QIVLTQSPGIMSASPGEKVTMTCSASSSVTYMYWYQQKPRSSPKPWIYLTSNLASGVPARFSGSGSGTSYSLTISSMEAEDGATYYCQQWSSTPPLTFGGGTKLELN
notes: murine monoclonal, isotype G2a; reported as PRLR agonist; also called murine Ab12
For the molecule B6, the values for the EC50 in assay [1] and in assay [2] were 0.121 nM and 0.116 nM, respectively. Moreover, the “FACS GeoMean-neg” value worked out at 1680 with human PRLR on cells and 17 in assay [4].

B7: Ab10 (antibody, V domains shown)
VH: EVQLHQSGPELVKPGASVKISCKASGYTFTDYNMHWMKQSHGKSLEWIGYFYPYNGGTGYNQEFKNKATLTVDISSSTAYMELRRLTSEDSAVYYCARGGWGIYYAMDYWGQGTSVTVSS
VL: DIQMTQSPASLSASVGETVTITCRASENIYSYLTWYQQKQGKSPQLLVYNAKTLAEGVPSRFSGSGSGTQFSLKINSLQPEDFGSYHCQHHSVTPLTFGAGTKLELK
notes: murine monoclonal, isotype G2a; also called murine Ab10
In the case of B7, the values for the EC50 in assay [1] and in assay [2] were 1.14 nM and 0.234 nM, respectively. In addition, the “FACS GeoMean-neg” value with human PRLR on cells was 2720; in assay [4], 16. Further, the “Nb2-11 proliferation IC50” value in assay [3] is > 30 mg/L.

B8: chAb8 (antibody, human IgG1, kappa, V domains shown)
VH: EVQLQQSGPELVKPGASVKISCKASGYTFTDYNIHWVKQSHGKSLEWIGYIYPNNDGTGYNQKFKSKATLTVDNSSSTAYMEVRSLTSEDSAVYYCARGDGNYVGDMDYWGQGTSVTVSS
VL: DIQMTQSPASLSASVGETVTITCRASENIYSYLAWYQQKQGKPPQLLVYNAKTLAEGVPSRFSGGGSGTQFSLKINSLQPEDFGSYYCQHHYATPFTFGSGTKLEIKT
notes: as for B3
Regarding B8, the EC50 in assay [1] came out at 1.02 nM; in assay [2] it was 0.305 nM.

B9: chAb7 (antibody, human IgG1, kappa, V domains shown)
VH: QVQLQQPGAELVMPGTSVKLSCKASGYTFTSYWIHWVKQRPGQGLEWIGEIDPSDSYTNYNQKFKGKATLTVDRSSSTAYMQLSSLTSEDSAVYYCGRSFFTNWFAYWGQGTLVTVSA
VL: DVVMTQTPLSLPVSLGDQASISCRSSQSLVHSNGNTYLHWYLQKPGQSPKLLIYKVSNRFSGVPDRFSGSGSGTDFTLKINRVEAEDLGVYFCSQSTHVPFTFGSGTKLEIKT
notes: as for B3
Regarding B9, the EC50 in assay [1] came to 0.184 nM; in assay [2] it was 0.157 nM. Further, the “Nb2-11 proliferation IC50” value in assay [3] came out at 16.8 mg/L.

B10: Ab6 (antibody, V domains shown)
VH: QVQLQQPGAELVMPGSSVKLSCKASGYTFTTYWMHWVKQRPGQGLEWIGEIDPSDSYSNYNQKFKDKATLTVDKSSSTAYMQLSSLTSEDSAVYYCARNGGLGPAWFSYWGQGTLVTVSA
VL: DIVMTQSQKFMSTTVGDRVSITCKASQYVGTAVAWYQQKPGQSPKLLIYSASNRYTGVPDRFTDSGSGTDFTLTISNLQSEDLADYFCQQYSSYPWTFGGGTKLEIK
notes: murine monoclonal, isotype G1; also called murine Ab6
As to B10, the “FACS GeoMean-neg” value in the assay with human PRLR on cells was 1840; in assay [4] it was 0. The “Nb2-11 proliferation IC50” value in assay [3] was > 30 mg/L.

B11: LFA102 (antibody, human IgG1, kappa, V domains shown)
VH: EVQLVESGGGLVQPGGSLRLSCAVSGFTFSSYGMSWVRQAPGKRLEWVATVSSGGTYTYYPDSVKGRFTISRDNSKNTLYLQMNSLRAEDTAMYYCARHRGNYYATYYYAMDYWGQGTLVTVSS
VL: DIVLTQSPDSLAVSLGERATINCKASKSVSTSGYTYMHWYQQKPGQPPKLLIYLASNRESGVPDRFSGSGSGTDFTLTISPVQAEDVATYYCQHSGELPPSFGQGTKLEIKR
notes: humanized IgG1 kappa comparator (WO 2008022295)
As for B11, the EC50 in assay [2] was determined as 0.157 nM. Moreover, the “FACS GeoMean-neg” value was 1640 with human PRLR on cells and 98 in assay [4]. Further, the “Nb2-11 proliferation IC50” value in assay [3] was 0.93 mg/L.
